Data published in the DeepSol protein solubility set.

Assay: soluble on expression in E. coli; label from the status in PepcDB or PDB records

Sequence	soluble on expression in E. coli
MDEEKIVLIGNESDLLHCGYNFALRAGGKRYPSAAHYTHYQILMSLNLPETAVEELLCTNSCDVHQKALVILQENMPDGHTINSLAAYLSESLRSYSIHALQLRAESDKDFEKTLMKTNEALLIVCDEKNPQLGIGMNDKTFMEWMAKEKADSRQISYWMKNEHTKPADLGQNKLGQYLMWLRFEIRERKKQGILTRPVVEVAGLSTDKDDEPIMISINDLVISLEGIFRPLSNYYAFPFEMKRERYRSVEHYAYEKLFNSLKLDEKAIEKIQTTPAPLNVPVVASKLLRKLEINPETIAEKTSKMDRWRQSAMKHKIYHNEYLQQLLLSTGSAILIDSSLGDPLWTCGATEVELQHLLTKSYVTPEKLVGWMLDGEETNTPKSVRHLYGNKSGLLLMELREKLSLQTTSRIPLVKLSKMNLNPLSGIVTPNVICFTPESVFHPLYPAEIRCSADGPPLPSPVHYVATQAAKFLSMNQEDTEYILEGPSSIQCWSRLHEVIESRGRGLELEQTWWMDKRMQFIKESLQLLLEQHPALLRALLDTGDSMLVYCSRFSSMDAELSMGMREMDFRYWLQEVDLTTKQLIELCTRPMAFRPPYIGGNRLGMILMELRREFVLQGVFPQQLPELQLTADSILGSNSPTENFMTSEYFDILQPWNYTALWINPLFLLAKDGNQEAMAQCTRIKTAPRMVTIDDEKVTDIVENLVNDETQEEALNSIAPEDLRAVFMKLCARLRGKIETLDRQSMELSMVAMETHRLQSIRRSLADTAERAETEGPSSSTGPSISAPPIPSRPGHSNYRMAAGRERDREEEREKDRERLQSQLSTSSSGPQGSASRKERMEYKIPTTSRRKFGKDRDRLPEKSSSDRGRDKHLDTPTKKRVNQSPPSRKAAPSPAKKPAISTSTPAVVVPPKPKRDPEEELSDGEILSTDEEDN	not soluble
MDERRFFRDVCAEWMEQYRLTVRESTLEKTQRIINIHVLPAFGDMVINNITPNVCQKVVNKWFLEAKSYKKWLNYASMIFDYALRAEYVGRNPCTLVTMPRVQEQAGEKLEHHHHHH	not soluble
MDEVANALAVSQTMMEKMQKLEISKNYDVEKFETLLRLPARDVNTFMEKEAKKTDDEKMTDMDRRIKRIREDKTDRAARTLQKYFRKIRVKGEQNHINKRISKIPAKRRVVLLEQIRQKMGEQQPIRRFGGYQVIRAVELHKGKQKLQKDWLAKLSIDVNFHDKNLSRPNSPTHFIANSIPTLIRKKAEMKHAEKMQEIDSSIMDIYCGFQKDNLH	not soluble
MDGDGDPESVSHPEEASPEEQPEEAGAEASAEEEQLREAEEEEEAEAVEYLAELPEPLLLRVLAELPATELVQACRLVCLRWKELVDGAPLWLLKCQQEGLVPEGSADEERDHWQQFYFLSKRRRNLLRNPCGEEDLEGWSDVEHGGDGWKVEELPGDNGVEFTQDDSVKKYFASSFEWCRKAQVIDLQAEGYWEELLDTTQPAIVVKDWYSGRTDAGSLYELTVRLLSENEDVLAEFATGQVAVPEDGSWMEISHTFIDYGPGVRFVRFEHGGQDSVYWKGWFGARVTNSSVWVEP	soluble
MDGILSHNSKKTADFDEYELYRRLKSWYKEDVEHVNEWREQAREDFDFYNGRQWAEEDLAVLKAQRRPVMTFNRIAPLVNAIVGAERNNKREVQFQPRQAGAAISNELLTGAAEWFRDEAEAEYADSDAFQDMVICGMGWTDTRLDYETDPEGIPAIQRLDPLKMVWDANAVRPNLIDAQRMWYVDRKPVEDAKSLFPDVAVEDLHADWATDNTTACEEYHVSLDAYNDHANADSLSQSASEKRYVTLVECRWFEYEVYFKAPDLQTGQMRSYSKQEFEQLQRVAPQLQGVRFNKKVVKRAFLGRRLLAKPDKPLAPDGQLGWECITGTLDKLKNQFYGIVRPAKDPQKWSNKYFSQVMYILNSQAKGGLMAERGAFDDERQALENWTRTDTITWVKNGALTGGKIQPKPSAQFPNGFFQLFNESREAITHVTGLSAEFIGTREVNQANVLENTRRQSTLNLLAGLFDNLKLYRCRQGKIILYLIQNYLSDGRLVRISGPENAQYVPLTREAVTKLEYDIIVDDSPTSPNEKERTFAAITQMLPLLGGFLTPEMIPDLLKLSPLPATLVANLTAKAQQAQQEQQQQQMMQQNQGTQLNPEQQAKIAALQQEAQAKGTLYQLDAQQKQLALQQKNIELFLKQEQARMQLELQRAKNEIAQRDLERKSLQAQLEHYRVLTKRLIPH	not soluble
MDGMTPNRLLDLAIQSLLSNESAAIQALEDIPRELFVPLFIAAFKGGHKNTLSAMVKVWPFYCLHMGSLRILEPQHELLKAIIENLPVHPAQTSAFWGPKLRILDLRQDTNCRITCPEVSTKSPSCFHSCIYSDSSITKIERQLCFINSGCKTLLPRPVELILDLFLDGSLIEKDFLILLMHKIEESLGFLHVCCRDLQIDKPCKCKCTLKFLDLQCVDQLSVDRGSLSDITSILGQMGHLESLTLSNVTFRSLRGKVFKIFLSHLQRMENLKELSFSSFRLKNHLDRVLRVLPPDLDFLYLPFCGLSYRDIKFMSQSPHVTHLKLLNLSNNLMYWDDFGPFHSVLSNLSGTLQHLEINHCHISDSAISALIPALIRCTHLRVLGFACNPITMPMLVNIMHHLTPMMELKYVIYPIPVHCYERWHFHGSLDRGKLAIKVLGLPVQAKYPRNGWSKAISSSDENIPKAQTDTIPTCSWSWSLSRLQSAVQPPRDNLGRWKDTYAERAGNAVHGAV	not soluble
MDGNQYEAIFLNYFRGIFPNADNLNVKCVKRMSEQQMKTTISRHGMRCTVLNGKDKISSYTVKKIVETPGKREYYGVRDIFAFKLLDMMGVGPKVHFVSNGEVGDDVGLFIVTEDD	not soluble
MDHGRRRLHSGSTPRGGERPAKRERISVEEQQSQEIRNLKRKLEEARQREDKYIKNEQLHHTAMRSKQQRIERMEKSMESTNRKMYATQCRLNDMENIYDDLEMESKIMADFIDHYYDSRNITEEDRDELQDKLDEEAANYRDLEDRIKEVRHRDRYMKTVETERKRTTFYRKKMLELAEQLQFEQQEVTGETPLWKLCEICAHQFSHSDEYVPRVLVCGHTLCTSCIEKLDVGDGIRCPFCRTWTNMKRIEALPKNFQILQM	not soluble
MDHRRLWRAANRLASDRLGSGEMCCALTSPTSTAQSPSTSFFFGSSLPFLLATIPHTLISAIAEHAILHAWYGGPHVYPDAKLPCPTATFVFKDSPLLRVDDVTSLQWDRAQAANFLVAVLRQPAVQKELRQRLWSAVQNCHRGVLRKLESLAVQKDVEGASKEAAADRLILLDQEPGMPSPPSLSLREVRDDLFSFDELLYFVRVSPSTSSTSRQQRVECESLRSTHLFRFVTSRADVAAALRDRPRSNVSDLLFCVSLRNGDTSAKASSAPVSLSTRDKLWLLLSEMVRLRYLVAYLLNFEVMLHRVRNSTRHSQRGQSTSKEVDSAGFPGNSSSEHADAQDAENAKCIAAVFRFLDIRLHTRLAVSPHHRRFLRHARVRHCERSATPEPPDRATAAHEATDADTSVRHEARRYATVQELFSAFSKALEESTTPPSQLPATVASFTSLAKSPGEGQGAAENGIEAMSKRPDHMRGRSARQNVVQARATSDGPSSLSDTDDEFLKAIVSATRQDQPPDSTVQSTPMRATHRGGVKSPSANPGELPCSRGLPGRRCLTAERSTTCLPQSRRAAEDPHPFVDVVFERKSNRSKWPFQALRARTNASNFKVRFGGSHDASSHAAVICFQLSCTREEREKAEIAPLSGKSAADLLQQYPYVTHVNGISARKVELVVRLFRSAHVLKLRLARRPPDR	soluble
MDICERSDEVVRYDSAQIRNGELELSSTVDDALFTDGLVATSGMLNADCRLVFGLVMFGHPLDEPMLCFTANGFELTVSIPNEDGETSSTWVIMARER	not soluble
MDKAIIDIYYCRQCNWMLRSTWLSQELLHTFSEEIDTISLHPDTGGRFEIFCNGQQIWERKKDGGFPEAKVLKQRVRDIIDPERDLGHSDTKLEHHHHHH	soluble
MDKFRVYGQSRLSGSVNISGAKNAALPILFAAILATEPVKLTNVPELKDIETTLKILRQLGVVVDRDATGAVLLDASNINHFTAPYELVKTMRASIWALAPLVARFHQGQVSLPGGCSIGARPVDLHISGLEKLGADIVLEEGYVKAQVSDRLVGTRIVIEKVSVGATLSIMMAATLAKGTTVIENAAREPEIVDTADFLNKMGAKITGAGSAHITIEGVERLTGCEHSVVPDRIETGTFLIAAAISGGCVVCQNTKADTLDAVIDKLREAGAQVDVTENSITLDMLGNRPKAVNIRTAPHPGFPTDMQAQFTLLNMVAEGTSIITETIFENRFMHIPELIRMGGKAEIEGNTAVCHGVEQLSGTEVIATDLRASISLVLAGCIATGETIVDRIYHIDRGYEHIEDKLRGLGAKIERFSGSDEA	soluble
MDKKANSNQNQEQKRETSDAVDRAAKAGLFNRIYVTVGQKVGIVELTKLEPRFERNIEKLTTYHNIIYNMVNAIELQVQVDPKAIVKNQVLCDPDESPWELLGGWINYMGTYHFNGPQSKILDAYSIACGKIGQKERQLQKRTRSHCIKKMRMYTADESVELNNHVAHLKDLLIAIDDSRHQLKSSRTTKEVKAKGEIYRKNIQAFNCTANEVQARLDEVPMIVPHHENELLKFSREVSIFNNSVENLLKEVVFRLGYGKRNDKPSTRAVLK	not soluble
MDKKIIGIDLGGTTIKFAILTTDGVVQQKWSIETNILEDGKHIVPSIIESIRHRIDLYNMKKEDFVGIGMGTPGSVDIEKGTVVGAYNLNWTTVQPVKEQIESALGIPFALDNDANVAALGERWKGAGENNPDVIFITLGTGVGGGIVAAGKLLHGVAGCAGEVGHVTVDPNGFDCTCGKRGCLETVSSATGVVRVARHLSEEFAGDSELKQAIDDGQDVSSKDVFEFAEKGDHFALMVVDRVCFYLGLATGNLGNTLNPDSVVIGGGVSAAGEFLRSRVEKYFQEFTFPQVRNSTKIKLAELGNEAGVIGAASLALQFSKEK	soluble
MDKNLLEAVKFDEKGLVCAIAQDAETKRILMVAWMNAEALQKTVETGFAHYYSRSRQKQWMKGEESGHTQKVRALRLDCDGDAIVMLIAQNGGIACHTGRESCFYKVWRGSAWETADAVLKDEKEIYGSTH	not soluble
MDKQHFKLWYFQFRGRAEPIRLLLTCAGVKFEDYQFTMDQWPTIKPTLPGGRVPLLDVTGPDGKLRRYQESMAIARLLARQFKMMGETDEEYYLIERIIGECEDLYREVYTIFRTPQGEKEAKIKEFKENNGPTLLKLVSESLESSGGKHVAGNRITLGDLFLFTTLTHVMETVPGFLEQKFPKLHEFHKSLPTSCSRLSEYLKKRAKTPF	soluble
MDKQVRNTTEIVRLAKQKSKKTREKVDKAISKFSIEGKVINFNSIAKEANVSKSWLYKEHDIRQRIESLRERQITANVVSKPKKSSRSEEILIKTLKRRVMELEKENKKLQNQIQKLYGDLYNKELEHHHHHH	soluble
MDKRIENAMNELINTEIWSTGLYLSLQVYFEDERLPILSSWLNSQAQDNMNKVYQMMNRICHDGGCVVINEMKRDTHEWTTPLNALNELLEHEQYISRQVNTFLILCWNVSMSFHSFISGLYADRIYVSTAFMELLRILAKENERKLPYF	not soluble
MDKSKINFNYQSRAVYSANPQTSRGRLFHETMNTLRSPFQRDRDRIIHSNAFRRLKHKTQVFIADESDHYRTRLTHSIEVSQIARTLARALYLDEDLAESIALVHDFGHTPFGHAGEDALNEAMAPYGGFDHNAQALRIVTKLEQRYANFDGLNLTWETLEGLVKHNGPLLGPYAKNKDIPIDILQYNAKQDLQLNCFAGLEAQCAAIADDIAYNAHDVDDGLRSQFLTLDQFEQVSLTAALLNDIKKEHPQLDQTRRGYTLVRRQIKTMVEDVIKQSQENLARVKPKSISDVHQAEQTIVTFSPTMAVYERELKDFLFKNLYYHDQVLNRRNAAKRIVQKLFECYYENPDVMPENWHNKTAHLTNQELARLIADFLSGMTDHYALREYQHLFDCTDNFI	not soluble
